IC50 data for 32 molecules are collected here from patent US20060079453A1.

“And” between values parts separate entries of the source, which are not always exact repeats. Identical values can stand only once. Like-named read-outs stand apart in the source and are kept apart here.

One may read the IC50 as the concentration that gives 50% inhibition.

Some targets named below: HLA-A*2902 (human); HLA-A*3002 (human); HLA-A*0101 (human).
What all share (assay): competition, purified HLA
The mark [1] stands for this setting: remark: other sources report otherwise.

For the molecule RSDGPGPGVLY (modifications not checked), the IC50 in the assay with HLA-A*2902 (human) was determined as 13.2 µM.
Same read-out and setting: under TQGPGPGKY (modifications not checked) stands 36.7 µM.
IYGPGPGLIF (modifications not checked) gave an IC50 in the assay with HLA-A*3002 (human) of 6.84 µM.
As to KYTSFPWL (modifications not checked), the IC50 with HLA-A*2902 (human) is greater than 172 µM.
In the case of YTGPGPGVY (modifications not checked), the IC50 with HLA-A*3002 (human) stood at 0.0064 µM; with HLA-A*2902 (human), 2.02 µM.
In turn, AYSSWMYSY (modifications not checked) came in with an IC50 in the assay with HLA-A*3002 (human) of 0.0049 µM.
Consider ATSNYYIVTY (modifications not checked), for which the IC50 with HLA-A*0101 (human) turned out to be 0.428 µM.
EYRHYNYSLY (modifications not checked): the IC50 in the assay with HLA-A*2902 (human) was 0.956 µM; with HLA-A*0101 (human) it was 111 µM.
For the molecule RQAKQHTCY (modifications not checked), the IC50 with HLA-A*2902 (human) is 155 µM; with HLA-A*0101 (human), greater than 135 µM.
In the assay with HLA-A*0101 (human) (setting [1]), ALFQEYQCY (modifications not checked) registered an IC50 greater than 42 µM.
Turning to KTLYQSNPY (modifications not checked), in the assay with HLA-A*0101 (human), the IC50 was found to be 6.91 µM.
In the assay with HLA-A*3002 (human), RISGVDRYY (modifications not checked) had an IC50 of 0.003 µM.
As for RSDSVGPGPGY (modifications not checked), the IC50 with HLA-A*2902 (human) amounted to 31.2 µM.
TQDGPGPGY (modifications not checked): the IC50 in the assay with HLA-A*3002 (human) stood at 0.541 µM; with HLA-A*2902 (human) it was 37.1 µM.
In the case of EVGPGPGLY (modifications not checked), the IC50 with HLA-A*0101 (human) worked out at 0.05 µM.
As to RWGLLLALL (modifications not checked), the IC50 amounted to 0.3 µM with HLA-A*3002 (human) and 61.3 µM with HLA-A*2902 (human).
For the molecule FTDLRIVY (modifications not checked), the IC50 with HLA-A*3002 (human) came out at 8.06 µM; with HLA-A*2902 (human) it was 0.813 µM; with HLA-A*0101 (human), 0.026 µM.
In the assay with HLA-A*3002 (human), IMVLSFLF (modifications not checked) gave an IC50 of 30 µM.
RFLSKISEY (modifications not checked) yielded an IC50 with HLA-A*0101 (human) greater than 40.3 µM.
Consider FTDLTIVY (modifications not checked), for which the IC50 is 39 µM in the assay with HLA-A*3002 (human); 0.016 µM and 0.034 µM with HLA-A*0101 (human).
In the assay with HLA-A*0101 (human), AADAAAAKY (modifications not checked) showed a 50% inhibitory concentration (IC50) of 0.02 µM.
In turn, YTAGPGPGY (modifications not checked) gave an IC50 in the assay with HLA-A*0101 (human) of 0.007 µM.
Consider TQDLVQEKY (modifications not checked), for which the IC50 with HLA-A*2902 (human) stood at 33.3 µM.
Consider RQDILDLWVY (modifications not checked), for which the IC50 in the assay with HLA-A*3002 (human) was determined as 0.095 µM; with HLA-A*0101 (human), 9 µM.
Take WFHISCLTF (modifications not checked): the IC50 came out at 75.1 µM with HLA-A*3002 (human) (setting [1]), 0.095 µM with HLA-A*2902 (human) (setting [1]) and 85.3 µM with HLA-A*0101 (human) (setting [1]).
As for RVLPPNWKY (modifications not checked), the IC50 with HLA-A*3002 (human) stood at 0.003 µM.
With TLEKLTNTGLY (modifications not checked), the 50% inhibitory concentration (IC50) in the assay with HLA-A*2902 (human) (setting [1]) amounted to 0.991 µM; with HLA-A*0101 (human) (setting [1]) it was 0.077 µM.
In turn, PTLKEYVLDLY (modifications not checked) registered an IC50 with HLA-A*2902 (human) of 0.805 µM.
Regarding EVDGPGPGY (modifications not checked), the values for the IC50 in the assay with HLA-A*3002 (human) and with HLA-A*2902 (human) were 5.77 µM and 25.8 µM, respectively.
As for TLEKITNTELY (modifications not checked), the IC50 with HLA-A*2902 (human) was determined as 8.4 µM.
ISEYRHYQY (modifications not checked) displayed an IC50 with HLA-A*0101 (human) of 0.04 µM.
For the molecule AYGPGPGKF (modifications not checked), the IC50 with HLA-A*2902 (human) was 44.9 µM.
